Results reported in patent publication US10040829B2.

What was measured:
hASCT1 receptor (human) = hASCT1 receptor (human) (UniProt P43007); experiment: in vivo binding in SCID mice grafted with XChASCT1 cells; anti-RGS His and anti-mouse FITC, IF reading
[1] = molecular target: hASCT2 receptor (type 2 sodium-dependant neutral amino acid receptor-transporter) (human) (UniProt Q15758); experiment: in vivo binding in SCID mice grafted with XChASCT2 cells; anti-RGS His and anti-mouse FITC, IF reading

## soluble HERV-W Env protein of Example 7 (293T cells transfected with the plasmid 460, envelope-spacer-His6)
hASCT1 receptor (human)
  NF/NT, Mean (fluorescent cells out of 77 cells): 24
[1]
  NF/NT, Mean (fluorescent cells out of 57 cells): 23
